Reference: WO2021241730A1 (dated 2021)
Residue numbers refer to the chain shown, from its start.

Key:
[1] = molecular target: T1, mouse IL-22BP-His (mouse, UniProt Q80XF5 21-230); assay: direct ELISA on coated mouse IL-22BP-His, purified rat antibody
T1 chain: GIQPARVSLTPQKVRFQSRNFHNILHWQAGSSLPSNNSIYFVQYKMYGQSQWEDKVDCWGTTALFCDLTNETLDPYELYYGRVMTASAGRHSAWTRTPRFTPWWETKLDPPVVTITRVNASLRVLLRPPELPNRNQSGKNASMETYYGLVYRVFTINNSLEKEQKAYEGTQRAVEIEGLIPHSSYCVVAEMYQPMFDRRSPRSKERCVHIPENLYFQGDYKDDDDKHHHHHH

[2] = molecular target: T2, human IL-22BP (Isoform 2)-His (human, UniProt Q969J5 22-263); assay: direct ELISA on coated human IL-22BP-His, purified rat antibody
T2 construct: Expressed in FreeStyle 293F cells and purified from the culture supernatant; also called human IL-22BP-His
T2 sequence: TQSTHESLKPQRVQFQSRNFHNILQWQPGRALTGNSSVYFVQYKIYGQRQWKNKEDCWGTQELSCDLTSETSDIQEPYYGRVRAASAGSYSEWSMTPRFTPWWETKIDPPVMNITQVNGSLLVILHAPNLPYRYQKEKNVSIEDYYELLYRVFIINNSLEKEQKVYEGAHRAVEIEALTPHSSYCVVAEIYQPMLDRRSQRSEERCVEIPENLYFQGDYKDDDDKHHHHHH

[3] = molecular target: T3, monkey IL-22BP-His (monkey); assay: direct ELISA on coated monkey IL-22BP-His, purified rat antibody
T3 chain: T2 sequence with S3P, T4A, S64F, E92D, Y132Q, V140I, L149V, A172V, T179P, I209M

[4] = molecular target: T1, mouse IL-22BP-His; assay: direct ELISA on coated mouse IL-22BP-His
[5] = molecular target: T2, human IL-22BP (Isoform 2)-His; assay: direct ELISA screen on coated human IL-22BP-His, then competition ELISA with IL-22; hybridoma supernatant
[6] = molecular target: T2, human IL-22BP (Isoform 2)-His; assay: competition ELISA on captured human IL-22BP-His, IL-22 as competitor; stronger inhibitory tendency than cMAb4 and the hMAb4 antibodies
[7] = molecular target: T2, human IL-22BP (Isoform 2)-His; assay: competition ELISA on captured human IL-22BP-His, IL-22 as competitor; weaker inhibitory tendency than cMAb3 and the hMAb3 antibodies

B1: rat anti-human IL-22BP antibody rMAb8 (antibody, rat IgG2a, V domains shown)
VH: QVQLKESGPGLVQPSQTLSLTCTVSGFSLSSYTVSWVRQPPGKGLDWIAAISSGGSTYYNSALKSRLTISRDTSKSQVFLKMNSLQTEDTAMYFCARSTGDYWGQGVMVTVSS
VL: DIQMTQSPSLLSASVGDRVTLNCKASQSIYKNLAWYQQKLGEAPKLLIYSAKSLQTGTPSRFSGSGSGTDFTLTISSLQPEDVATYFCHQYYSGWTFGGGTKLELKR
notes: Rat IgG2a, kappa chain, from hybridoma
[1]
  binding result: binds
[2]
  binding result: binds
[3]
  binding result: binds

B2: rat anti-human IL-22BP antibody rMAb14 (antibody, rat IgG1, V domains shown)
VH: B1 VH with S30T, D46E, T68S, N83S, T90A
VL: B1 VL with S28N, A43T, K45R, K52N, S53R, T58I
notes: Rat IgG1, kappa chain, from hybridoma
[1]
  binding result: binds
[2]
  binding result: binds
[3]
  binding result: binds

B3: rat anti-human IL-22BP antibody rMAb20 (antibody, rat IgG1, V domains shown)
VH: QVQLKESGPGLVQPSQTLSLACTVSGFSLTTYHVHWVRQPSGEGLEWMGVIWTGGSTEYNSALKPRLSISRDTSKSQVFLKMNVLQTEDTATYYCARESRGRRIFDYWGQGVMVTVSS
VL: DIQMTQSPSVLSASVGDRVTLNCKASQNINKYLNWYQQKLGEAPKLLIYNTNNLQTGIPSRFSGSGSGTDYTLTISSLQPEDFGTYFCFHHNSWPLTFGSGTKLEIKR
notes: as for B2
[4]
  binding result: no binding
[2]
  binding result: binds
[3]
  binding result: binds

B4: rat anti-human IL-22BP antibody rMAb3 (antibody, rat IgG1, V domains shown)
VH: EVQLQQSGAELVRPGTSVKLSCKLSGGTISAYFIHFVKQRPGQGLEWIGRIDPEDDSTEYAEKFKNKATLTADTSSNTAYLILGSLTSDDTATYFCTTGSDYWGQGVMVTVSS
VL: DVVMTQTPVSLSLAIGQPASISCKSSQSLLGTSGKTFLNWILQRPGQSPKRLIYQVSKLYSGVPDRFSGSGSETEFTLKISRVEAEDLGVYYCWQGTLFPRTFGGGTKLEVKR
notes: as for B2
[4]
  binding result: no binding
[5]
  binding result: binds
[3]
  binding result: binds

B5: human chimeric anti-human IL-22BP antibody cMAb3 (antibody, human IgG1, kappa, V domains shown)
VH: B4 VH
VL: B4 VL
notes: Rat variable regions on human IgG1 / kappa constant regions
[6]
  binding result: binds

B6: humanized anti-human IL-22BP antibody hMAb3_H01L03 (antibody, human IgG1, kappa, V domains shown)
VH: EVQLVQSGAEVKKPGASVKVSCKASGGTISAYFIHWVRQAPGQGLEWMGRIDPEDDSTEYAQKFQGRVTITADTSTNTAYMELSSLRSEDTAVYYCTTGSDYWGQGTLVTVSS
VL: B4 VL with S12P, L13V, A14T, I15L, L42Q, E73G, E75D, L88V, L109V, V111I
notes: Human IgG1 / kappa
[6]
  binding result: binds

B7: humanized anti-human IL-22BP antibody hMAb3_H01L04 (antibody, human IgG1, kappa, V domains shown)
VH: B6 VH
VL: DVVMTQSPLSLPVTLGQPASISCKSSQSLLGTSGKTFLNWIQQRPGQSPKRLIYQVSKLYSGVPDRFSGSGSGTEFTLKISRVEAEDVGVYYCWQGTLFPRTFGGGTKVEIKR
notes: Human IgG1 / kappa
[6]
  binding result: binds

B8: humanized anti-human IL-22BP antibody hMAb3_H04L03 (antibody, human IgG1, kappa, V domains shown)
VH: B6 VH with A24L, W36F, I70L, M81L, Y95F
VL: B7 VL with S7T, L9V, E75D
notes: Human IgG1 / kappa
[6]
  binding result: binds

B9: rat anti-human IL-22BP antibody rMAb4 (antibody, rat IgG1, V domains shown)
VH: EVQLVESGGGLVQPGRSLKLSCAASGFTYSNYVMAWVRQAPTKGLEWVASISTGGGNTSYRDSVKGRFTISRDNAKNTLYLQMDSLRSEDTATYYCANVSPTEGMDYWGQGVMVTVSS
VL: DIVMTQGALPNPVPSGESVSITCRSSKSLLYSNGKTYLNWYLQRPGQSPQLLIYWMSTRASGVSDRFSGGGSGTDFTLKISGVEAEDVGVYYCQQGLELPLTFGSGTKLEIKR
notes: as for B2
[4]
  binding result: no binding
[5]
  binding result: binds
[3]
  binding result: binds

B10: human chimeric anti-human IL-22BP antibody cMAb4 (antibody, human IgG1, kappa, V domains shown)
VH: B9 VH with S59A, N98R
VL: B9 VL
notes: as for B5
[7]
  binding result: binds

B11: humanized anti-human IL-22BP antibody hMAb4_H03L01 (antibody, human IgG1, kappa, V domains shown)
VH: EVQLVESGGGLVQPGGSLRLSCAASGFTYSNYVMAWVRQAPGKGLEWVASISTGGGNTAYRDSVKGRFTISRDNSKNTLYLQMNSLRAEDTAVYYCARVSPTEGMDYWGQGTLVTVSS
VL: DIVMTQGPLSLPVTPGEPASISCRSSKSLLYSNGKTYLNWYLQKPGQSPQLLIYWMSTRASGVPDRFSGGGSGTDFTLKISRVEAEDVGVYYCQQGLELPLTFGQGTKVEIKR
notes: Human IgG1 / kappa
[7]
  binding result: binds

B12: humanized anti-human IL-22BP antibody hMAb4_H02L05 (antibody, human IgG1, kappa, V domains shown)
VH: B11 VH with A49S
VL: DIQMTQSPSSLSASVGDRVTITCRSSKSLLYSNGKTYLNWYQQKPGKSPKLLIYWMSTRASGVPDRFSGGGSGTDFTLTISSLQPEDFATYYCQQGLELPLTFGQGTKVEIKR
notes: Human IgG1 / kappa
[7]
  binding result: binds

B13: humanized anti-human IL-22BP antibody hMAb4_H03L03 (antibody, human IgG1, kappa, V domains shown)
VH: B11 VH
VL: DIVMTQGPDSLAVSLGERATITCRSSKSLLYSNGKTYLNWYQQKPGQPPKLLIYWMSTRASGVPDRFSGGGSGTDFTLTISSLQAEDVAVYYCQQGLELPLTFGQGTKVEIKR
notes: Human IgG1 / kappa
[7]
  binding result: binds

B14: rat anti-human IL-22BP antibody rMAb81 (antibody, rat IgG1, V domains shown)
VH: EVQLVESGGGLVQPGRSLKLSCLASGFTFSNYGMNWIRQAPGKGLEWVATISSGSSYIYYADTVKGRFTISRENARNTLYLQMTSLRSEDTAFYYCARPLTGAFDYWGQGVMVTVSS
VL: DIVLTQSPALAASLGQRATISCRASQSVSTSSHNLMHWYQQKPGHQPKLLIYAASNLASSIPARFSGSGSGTDFTLTINPVQADDIATYYCQQSRELPLTFGSGTKLEIKR
notes: as for B2
[4]
  binding result: no binding
[2]
  binding result: binds
[3]
  binding result: binds
